Experimental data published in patent publication US20250369024A1, “Acyloin Condensation Reactions, Enzymes, and Products Thereof” (Mojia Biotech Pte. Ltd., priority 2023, published 2025).

Legend:
Format in all cases: cell-based, E. coli
Isovaleraldehyde = assay: HACS screening, isovaleraldehyde-C1 condensation (resting cells), leucic acid; settings: 20 mM isovaleraldehyde and 20 mM formate, 3 hours
Source text: (§1) To implement the C1 elongation pathway for leucic acid production in vivo, we engineered vectors to independently control expression of various HACS candidates and the acyl-CoA transferase from Clostridium aminobutyricum (CaAbfT), with HACS under control of the IPTG-inducible T7 promoter in pCDFDuet-1 and CaAbfT under control of a cumate-inducible T5 promoter in pETDuet-1. As a host for these vectors, we used an engineered strain of E. coli based on MG1655(DE3) with knockouts for formaldehyde (ΔfrmA) and formate (ΔfdhF ΔfdnG ΔfdoG) oxidation as well as for glycolate utilization (ΔglcD).
(§2) In vivo product synthesis was conducted using M9 minimal media (6.78 g/L Na2HPO4, 3 g/L KH2PO4, 1 g/L NH4Cl, 0.5 g/L NaCl, 2 mM MgSO4, 100 μM CaCl2), and 15 μM thiamine-HCl) unless otherwise stated. Cells were initially grown in 96-deep well plates (USA Scientific, Ocala, FL) containing 0.5 mL of the above media further supplemented with 20 g/L glycerol, 10 g/L tryptone, and 5 g/L yeast extract. […]
(§3) Cells from the above pre-cultures were then centrifuged (4000 rpm, 22° C.), washed with the above minimal media without any carbon source, and resuspended with 1 mL of above minimal media containing indicated amounts of carbon source. […] After incubation at 30° C. for 3 hours, the cells were pelleted by centrifugation and the media was analyzed using HPLC.

Formaldehyde = assay: HACS screening, formaldehyde-formyl-CoA condensation in vivo (resting cells), glycolate; settings: 2.5 mM formaldehyde and 20 mM formate, 0.5 hours
Source text: as §1, with “glycolate” for “leucic acid”, “pETDuet-1” for “pCDFDuet-1”, “pCDFDuet-1 (FIG. 14C).” for “pETDuet-1.”, “(ΔglcD), which we expected could compete or interfere with the analysis of our pathway (FIG. 14B).” for “(ΔglcD).”
In vivo product synthesis was conducted using M9 minimal media (6.78 g/L Na2HPO4, 3 g/L KH2PO4, 1 g/L NH4Cl, 0.5 g/L NaCl, 2 mM MgSO4, 100 μM CaCl2), and 15 μM thiamine-HCl) unless otherwise stated. […]
as §3, with “for 0.5” for “for 3”, “media” for “media was”, “analyzed (FIG. 14A).” for “analyzed using HPLC.”

Glycolaldehyde = assay: HACS screening, glycolaldehyde-C1 condensation (resting cells), glyceric acid; settings: 20 mM glycolaldehyde and 20 mM formate, 3 hour
Source text: as §1, with “glyceric” for “leucic”
as §2
as §3, with “hour,” for “hours,”

B1: RuHACL: Engineered 2-hydroxyphytanoyl-CoA lyase [Rhodospirillales bacterium URHD0017], SEQ ID NO: 1 (protein)
chain: MSEVDGATLIARSLKQQGIDHLFGVVGFPITAIAAAAQKEGVAYLGMRNEQSAAYAAAAYGYLTGRPGAAVVVTGPGVVHGLSGLANAQQNCWPMILIGGASETYRGGMGAFQEERQVLIASPFCKFAHGIESVARIPFYVEMATRNAIYGRPGATYLDMPDDIIRGTCETDKIAQAERVPEAPRSVAPAENVEAALDLLEKAQRPLVLLGKGMAWSRGEDEVRAFIERTQVPFVRSPMGKGVMPDDHPLSASAARTLALQQADVIFLMGARLNWIFHFGLPPRYAKDVKVIQLDIAPEEIGHNKPTEVALVGDGKAIMAQLNKALVNRQWFHPKDTPWRQALTKKAAENVATIKPQVDDDQGPAGYYRALRDVAAWMPKNAILSAEGANTMDIGLTQLASSNARSVLNAGTYGTMGVGLGQAIAAAVSDPSRPVIHLSGDSAIGFSGMEMETLVRYNLPVKIVVLNNGGIGPGMPEIPENPMFNLKPNALIYGARYDKVMEAFGGKGIFVKEPKDIRKALDEAMAFKGPALVNVVLSQGSTRKAQQFAWHS
modifications: Rhodospirillales bacterium URHD0017 engineered 2-hydroxyphytanoyl-CoA lyase
With B1 as the molecule, how does the “Product flux, substrate Isovaleraldehyde, product Leucic acid” value (Isovaleraldehyde) read?
Its value is 12.5 μM/OD/h.

What about the “Product flux, substrate Formaldehyde, product Glycolate” value (Formaldehyde) of the same molecule?
The value was 44.5 μM/OD/h.

And the “Product flux, substrate Glycolaldehyde, product Glycerate” value (Glycolaldehyde)?
Its value is 7.2 μM/OD/h.
